Source: patent publication US20260275304A1, “METHODS AND COMPOSITIONS FOR GLYPHOSATE TOLERANCE IN PLANTS” (Monsanto Technology LLC, priority 2023, published 2026)
Substitutions are numbered along the chain they refer to. In names and notes the source's numbering stands. Read-outs that look alike come from different tables or passages of the source.

Columns and labels:
[1] = tested on: S. cerevisiae strain sKR-024; assay: Growth of synthetic yeast strain sKR-024 expressing EPSPS variants with or without glyphosate; assay type: cell-based, Saccharomyces cerevisiae; settings: for growth in yeast minimal media without glyphosate: 0 mM glyphosate; for order of glyphosate tolerance: 5 mM glyphosate, FIG. 1 Panel C; for glyphosate tolerance in synthetic yeast host: mutants isolated from directed evolution
Protocol: EPSPS variants were re-cloned into a clean p416-Core1p backbone and transformed into strain sKR-024 as described above. Colonies were then picked in triplicate into YSC-Ura-Leu and outgrown for 2 days at 30° C. Cultures were then diluted back to OD 0.001 in yeast minimal media (YMM) containing varying amounts of glyphosate as indicated. Growth rate measurements were then obtained using an Infinite M200 PRO microplate reader (Tecan, Männedorf, Switzerland) with incubation at 30° C. for 72-120 hours depending on growth rate of selected variants.
To determine if this system could further corroborate observations from previous literature, the well-studied EPSPS mutants T102I and P106S, and the combined double mutant TIPS (T102I-P106S) were generated and complemented into this yeast system. These mutations were reported to result in varying degrees of glyphosate resistance.
Having established low copy number and weak promoter expression of EPSPS variants, it was sought to recharacterize phenotypes under field conditions that are used in planta. […] It has been reported previously that under standard glyphosate foliar application, 0.3 mM or more of glyphosate (gly) can accumulate in a plant's root nodules and meristems. […] These trends support reported literature of mutants P106S and TIPS grown in various plant hosts. As a result, the present synthetic yeast model system closely resembles in planta observations and thus can be used to select for dual-trait EPSPS variants aimed at both enzymatic efficiency and glyphosate resistance.
Select mutants isolated from the final directed evolution campaign with the improved selection strategy were further evaluated in assorted glyphosate concentrations to determine growth characteristics. Mutants isolated from an EPSPS background were evaluated in media containing 0 mM and 0.25 mM glyphosate with the latter being the concentration at which wild-type EPSPS cannot grow after 100 hours. […] The non-glyphosate mono selection highlighted in blue represents mutations resulting from 5 subcultures in 0 mM glyphosate. The low glyphosate dual selection highlighted in light green represents mutants resulting from an additional subculture into 0.5 mM glyphosate. Lastly, the high glyphosate dual selection highlighted in dark green represent mutations isolated after subcultures in increasing levels of glyphosate, up to 10 mM.

transgenic maize plants = assay: Maize transformation with glyphosate selection, plantlet recovery and quality checks; assay type: in vivo, Zea mays; settings: for Number of young plants passing quality control checks: in vivo; for Number of plantlets generated: under glyphosate selection, same amount of starting material
Source text: Maize was used as a model system to test the functionality of the EPSPS variants because of detailed previous characterization of glyphosate tolerance in maize and a suitable transgenic plant generation protocol that relies on glyphosate. Plant transformation vectors were generated in which the native maize EPSPS sequence was used, which includes the native gene promoter elements, the native introns and exons and the native 3′ untranslated region and introduced mutations that corresponded to each of the selected amino acid changes. The native sequence was used to mimic as closely as possible how the selected EPSPS variants would perform if the variants were introduced directly in the genome without the help of strong expression elements. The following variants were selected for testing in a transgenic maize system: TIPS (as a control); TIPS-P126S-M217L-K296R; TIPS-P126S-K296R; T102I-P126S-K296R (where only the T102I change is present); P106S-P126S-K296R (where only the P106S change is present); and P126S-K296R (where neither of the TIPS changes are present).
Transgenic maize plants that expressed each of the six EPSPS variants were generated to determine if the variants conferred glyphosate tolerance to plants. The full DNA sequence encoding TIPS EPSPS (SEQ ID NO:1) was cloned from maize genomic DNA. In this sequence, the promoter and 5′ UTR are nucleotides 1:2556; the chloroplast transit peptide sequence is nucleotides 2557:2742; EXON 1 is nucleotides 2743:2856; INTRON 1 is nucleotides 2857:3384; EXON 2 is nucleotides 3385:3626; INTRON 2 is nucleotides 3627:3725; EXON 3 is nucleotides 3726:3879; INTRON 3 is nucleotides 3880:4152; EXON 4 is nucleotides 4153:4367; INTRON 4 is nucleotides 4368:4877; EXON 5 is nucleotides 4878:4995; INTRON 5 is nucleotides 4996:5155; EXON 6 is nucleotides 5156:5366; INTRON 6 is nucleotides 5367:5446; EXON 7 is nucleotides 5447:5508; INTRON 7 is nucleotides 5509:5617; EXON 8 is nucleotides 5618:5836; and the 3′ UTR is nucleotides 5837:6368. Mutations were then introduced into the EPSPS coding sequence in order to produce each of the six EPSPS variants to be tested. These mutated full genomic DNA sequences were then each cloned as a single expression cassette into plant transformation vectors.
Agrobacterium tumefaciens-mediated plant transformation was performed using methods known in the art. Glyphosate selection was used to select for transgenic events containing the transgene of interest and further screened for only those EPSPS variants that provided effective glyphosate tolerance in a plant cell. While all six EPSPS variants began the transformation process with the same amount of starting maize cellular material, there were differences in the number of small plantlets recovered that were capable of being transplanted to greenhouse soil media (Table 4). Transgenic events were further analyzed to determine transgene copy number. Healthy events with single copy of the transgene of interest were grown in the greenhouse soil media. Only three of the six EPSPS variants had more than one plant surviving. Up to twenty-five of these developing R0 plants were transplanted to larger pots and allowed to grow to maturity for seed collection in the greenhouse.

maize EPSPS = assay: In vitro characterization of EPSPS mutants (EnzChek phosphate assay, Michaelis-Menten kinetics, glyphosate Ki); assay type: biochemical, Zea mays; settings: for Km: apparent Km, mean±S.E.; for Ki: inhibitory constant for glyphosate, no unit in table (around 800 μM)
Protocol: Activity was determined by quantifying release of Pi, coupled to a reaction with MESG, catalyzed by purine-nucleoside phosphorylase using the EnzChek Phosphate Assay Kit from Invitrogen, first published in 1992. 95 μL of master mix was added to each well and 5 μL of the varied substrate dilutions were multi-channeled into the plate to start the reaction simultaneously for all conditions. Absorbance measurements at 360 nm were taken every 10 seconds for 3 minutes to capture the initial reaction rate of each condition. Varying levels of substrate were added to generate the resulting reaction rate curves. Each condition was performed in triplicate. Ki was determined as previously described (Lu, et al., Protein Engineering, Design and Selection 30:395-399 (2017)). Data was fit to the Michaelis-Menten kinetics equation and were also validated through GraphPad Prism's built-in function for each variant.
For protein expression of EPSPS and its variants, E. coli BL21 (DE3) was used as the expression host. Electrocompetent cells were transformed with the corresponding constructed plasmids, pET28a (+) with selected EPSPS variants (wild-type, TIPS, TIPS P126S, TIPS K296R, TIPS P126S/K296R). A single colony of an E. coli BL21 (DE3) strain harboring one of the constructed plasmids was inoculated into 2 mL of Luria Bertani broth (LB) medium with 50 μg/mL kanamycin and grown overnight at 37° C./225 rpm. The overnight-grown culture (using 100 μl) was scaled up with 2000-fold dilution in a 500-mL triple baffled shake flask and grown to a cell density of 0.8 (optical density [OD600]) at 37° C./225 rpm. Protein expression was induced by adding 0.2 mM of isopropyl β-D-1-thiogalactopyranoside (IPTG) and cells were cultured for 24 hours at 20° C./225 rpm. The induced cell culture was harvested by centrifugation at 4,000 g and 4° C. for 20 mins. Cell pellets were then resuspended in 25 mL of Dulbecco's Phosphate Buffered Saline (DPBS) (Thermo Fisher Scientific, Waltham, MA) pH 7.0 buffer containing 10 mM imidazole, 1 g/L of lysozyme and 5 μl of Pierce™ Universal Nuclease (Thermo Fisher Scientific, Waltham, MA), followed by mixing on a rocker for 30 mins at 4° C. Subsequently, cells were lysed by sonication and the resulting cell lysate was centrifuged at 14,000 g and 4° C. for 20 minutes to obtain the supernatant that contains soluble proteins. Target proteins from the supernatant was purified by HisPur™ Ni-NTA Resin (Thermo Fisher Scientific, Waltham, MA) according to the manufacturer's instruction.
The eluate was dialyzed with 3C protease added to the dialysis cassette, into the appropriate buffer followed by size-exclusion fast protein liquid chromatography. All EPSP synthase variants were stored in 20 mM Tris (pH 7.5), 100 mM NaCl and 10 mM β-mercaptoethanol. The protein concentration was then determined by using the Coomassie Plus Bradford Assay kit (Thermo Fisher Scientific) and the Infinite M200 PRO microplate reader (Tecan, Männedorf, Switzerland) to measure the absorbance of assay mixtures. The presence and purity of the purified proteins were assessed by sodium dodecyl sulfate-polyacrylamide gel electrophoresis.
Enzymatic activity, including inhibitory constant Ki, for EPSPS and TIPS closely corroborate values determined by previous reports. Mutations P126S and K296R have beneficial effects on their own to both Km and kcat and are additive when combined, similar to the observations of the in vivo growth characterization. Furthermore, the high Ki is maintained for each of the variants, showing similar or slightly higher values of around 800 μM compared to the starting point, TIPS. These findings confirm the phenotype endowed by the dual-trait selection pressure employed during the directed evolution campaigns. Kinetic parameters of maize EPSPS with mutations discovered through directed evolution. In Table 4, initial velocity data were measured in triplicate and fit to the Michaelis-Menten equation. […]

[2] = PEP at saturation (roughly 10 times its Km), read-out: Km (S3P)
[3] = S3P at saturation (roughly 10 times its Km), read-out: Km (PEP)

B1: P106S: well-studied EPSPS single mutant P106S (protein)
chain: AGAEEIVLQPIKEISGTVKLPGSKSLSNRILLLAALSEGTTVVDNLLNSEDVHYMLGALRTLGLSVEADKAAKRAVVVGCGGKFPVEDSKEEVQLFLGNAGTAMRSLTAAVTAAGGNATYVLDGVPRMRERPIGDLVVGLKQLGADVDCFLGTDCPPVRVNGIGGLPGGKVKLSGSISSQYLSALLMAAPLALGDVEIEIIDKLISIPYVEMTLRLMERFGVKAEHSDSWDRFYIKGGQKYKSPKNAYVEGDASSASYFLAGAAITGGTVTVEGCGTTSLQGDVKFAEVLEMMGAKVTWTETSVTVTGPPREPFGRKHLKAIDVNMNKMPDVAMTLAVVALFADGPTAIRDVASWRVKETERMVAIRTELTKLGASVEEGPDYCIITPPEKLNVTAIDTYDDHRMAMAFSLAACAEVPVAIRDPGCTRKTFPDYFDVLSTFVKN
With B1 the “growth in yeast minimal media without glyphosate” value [1] was “grew very similarly”, the growth in glyphosate ([1]; 0.5 mM glyphosate, Core1p promoter) was “slightly higher growth than EPSPS after 80 hours” and the growth in glyphosate ([1]; 5 mM glyphosate (high levels)) was “no growth”. For the same molecule, the “order of glyphosate tolerance” value [1] was “P106S<T102I<TIPS”.

B2: TIPS-1177V: maize EPSPS variant, SEQ ID NO:21 (protein)
chain: B1 chain with T102I, I177V
modifications: Zea mays
With B2 the “glyphosate tolerance in synthetic yeast host” value [1] was “moderate glyphosate tolerance”.

B3: P106S-P126S-K296R: maize EPSPS variant, SEQ ID NO:13 (protein)
chain: B1 chain with P126S, K296R
modifications: Zea mays
With B3 the “Number of young plants passing quality control checks” value (transgenic maize plants) was 0 and the “Number of plantlets generated” value (transgenic maize plants) was 39.

B4: TIPS-K296R: maize EPSPS variant, SEQ ID NO:16 (protein)
chain: B1 chain with T102I, K296R
modifications: Zea mays
With B4 the Km (maize EPSPS; [2]) was 16.5 µM, the Km (maize EPSPS; [3]) was 24 µM and the Ki (maize EPSPS) was 841 µM.

B5: TIPS-P126S: maize EPSPS variant, SEQ ID NO:15 (protein)
chain: B1 chain with T102I, P126S
modifications: Zea mays
Molecule B5 has a Km (maize EPSPS; [2]) of 28.2 µM, a Km (maize EPSPS; [3]) of 13.7 µM and a Ki (maize EPSPS) of 859 µM.

B6: TIPS-V66L-M104L: maize EPSPS variant, SEQ ID NO:17 (protein)
chain: B1 chain with V66L, T102I, M104L
modifications: Zea mays
For B6, the “growth in yeast minimal media without glyphosate” value [1] was “high growth in non-glyphosate” and the “glyphosate tolerance in synthetic yeast host” value [1] was “high glyphosate tolerance”.

B7: T102I-P126S-K296R: maize EPSPS variant, SEQ ID NO:12 (protein)
chain: B1 chain with T102I, S106P, P126S, K296R
modifications: Zea mays
In the case of B7, the “Number of young plants passing quality control checks” value (transgenic maize plants) is reported as 1 and the “Number of plantlets generated” value (transgenic maize plants) is reported as 69.

B8: T102I: well-studied EPSPS single mutant T102I (protein)
chain: B1 chain with T102I, S106P
B8 was tested, and the “order of glyphosate tolerance” value [1] was “P106S<T102I<TIPS”.

B9: P106S-K296R: P106S scaffold carrying ported mutation(s), as worded in b196 (protein)
chain: B1 chain with K296R
In the case of B9, the growth in glyphosate ([1]; 5 mM glyphosate (high levels)) is reported as “observable growth”.

B10: TIPS-P126L: maize EPSPS variant, SEQ ID NO:22 (protein)
chain: B1 chain with T102I, P126L
modifications: Zea mays
For B10, the “glyphosate tolerance in synthetic yeast host” value [1] was “moderate glyphosate tolerance”.
